This test has as its target hCINAP-H79G mutant (human) (UniProt Q9Y3D8). The experiment in a line: SEC.

The stoichiometry N is the number of molecules, sites or subunits per partner or assembly. On to “hCINAP-H79G mutant (from UniProt Q9Y3D8 1-172) (enzyme)”, for which the stoichiometry N was 2.
